Test: yeast display, Sf9 membrane polyspecificity reagent, FACS + sequencing; frameworks hold sequencing errors
Outline: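 Using colony PCR, genes from sorted yeast display clones were amplified, then sequenced on MiSeq at 2 × 250 and filtered by CDR length. The clones had been stained with 10% biotinylated, detergent-solubilized Sf9 membrane reagent for 1 hour at 4 °C and sorted by FACS into low and high (top ~1%) gates on anti-HA and streptavidin fluorescence. Polyreactivity labels come from the gate of origin.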

Sequence | polyreactivity (PSR sort gate)
QVQLVESGGGIVQAGGSLRLSCPASGFIGVNGMGWYIQAPGKERELVAAISSGGSTNYADSVKGRFTMSRDNAKNTVYLQMNSLKPEDTAVYYCAKDFLLDSFYHTYRYRYDYWGQGTQVTVSS | low polyreactivity
QVQLVESGGGIVQAGGSLRLSCSASGFSFSSYAMGWYRQAPGKERELVASITWSGGRTYYADSVKGRFTISRDNAKNTVYLQMNSLKPEDTAVYYCAPGDVNWSYSLLYTVVLFDSWGQGTQVTVSS | high polyreactivity
QVQLVESGGGIVQAGGSLRLSWAASGFIFNNYAMGWYRQAPGKERELVAAITGGGSTNYADSVKGRFTISRDNAKNTVYLQMNSLKPEDTAVYYCNAEGVWWSTRYDSWGQGTQVTVSS | low polyreactivity
QVQLVESGGGIVQAGGSLRLSWAASGSINYRNARGCYRQAPGKERELVAAISSDGSTNYADSVKGRFTISRDNAKNTVYLQMNRLKPEDTAVYSCASPWTQILDYWGKGTQVTVSS | low polyreactivity
QVQLVESGGGIVQAGGSLRLTCAASGSIFVNNAIGWYIQAPGKERELVADIRRSGGNTYYADSVKGRFTISRDNAKNTVYLQMNSLKPEDTAVYYCNVVRRADSIRAKSRDYWGQGTQVTVSS | high polyreactivity
QVQLVESGGGIVQAGGSLRLTCAASGSTFEIYAMGWYRQAPGKERELVAAISSGGSTNYADSVKGRFTISRDNAKNTVYLQMNSLKPDDTAVYDCAAVLYSRLYWYRLDYWGQGTQVTVSS | low polyreactivity
QVQLVESGGGIVQAGGSLRLTCAASGYIFYSYAMGWYRHAPGKERELVATISSGGSTYYADSVKGRFTISRDNAKNTVYFQMNSLKPEDTAVYYCATDHDIVYNFNRYDYWGQGTQVTVSS | low polyreactivity
QVQLVESGGGIVQAGGSLRVSCAASGRTYLRNAMGWSRQAPGKERELVASITSRGGRTYADSVKGRFTISRDNAKNTVYLQMNSLKPEDTAVYYCDARRQAGLRYDYWGQGTQVTVSS | high polyreactivity
QVQLVESGGGIVQSGGSLRLICAASGGIFKYNAMGWYRQAPGKERELVAAINYSGGRTYYADSVKGRFTISRDNAKNTVYLQMNSLKPEDTAVYYCNALTRGHTGQPYTYDYWGQGTQVTVSS | high polyreactivity
QVQLVESGGGLAQAGGSLRLSCAASGSTFYSYAMGWYRQAPGKERELVAGITWNDGSTYYADSVKGRFTISRDNAKNTVYLQMNSLKPEDTAVYYCNTDASPYLFDYWGHGTQVTVSS | low polyreactivity
QVQLVESGGGLDAAGGSLRLSCAASGSTVIAYAMGWYRQAPGKEWELVAVMTSRGGRTYYADSVKGRFTISRDNAKNTVYLQMNSQKPEDTAVYYCATRSYRYLRSYDYWGQGTQVTVSS | high polyreactivity
QVQLVESGGGLDHAGGSLRLSCADSGRIFNYNAMGWYIQAPGKESELVAAISWDGGSTYYADSVKGRFTISRDNAKNTVYLQINSLKPEDSAVYYCAAQYIWSSYRYYYWGQGTQVTVSS | high polyreactivity
QVQLVESGGGLDHAGGSLRLSCAPSGRIFSVNAMGWYRQAPGKERELVAAITSGDSTNYADSVKGRFTISRDNAKNTVYLQSNSMKQEDTAVYYCNARGSQELWRRKWYHTEYDSWGQGTQVSVSS | low polyreactivity
QVQLVESGGGLDHARGSLRLICPASGRTFAPYAMGWYRQAPGKERELVARITWSGTDTYYADSVKGRFTISRDNAKNTVYLQMNCLKPDDTAVYYCAADARYSRRYYYWGQGTQVTVSS | low polyreactivity
QVQLVESGGGLDQAGCSLRLSCAASGRIFPYMGWYRQAPGKDRELVAAINASGGRTYYADSVKGRFTISRDNAKNTVYLQMNSLKPEDTAVYYCNAVWSSDTYTHPQYDYWGQGTQVTVSS | high polyreactivity
QVQLVESGGGLDQAGCSLRLSWAASGITSYYNAMGWYRQAPGKERELVAAITSGGSTYYADSVKGRFTISRDNAKNTVYLQMNSLKPEVTAVYYCARRSRYLWRYDYWGQGTQVTVSS | high polyreactivity
QVQLVESGGGLDQAGGRLRLSCAASGITFGRNTMGWYRQSPGKERELVAAIDSGGNTYADSVKGRFTISRDNAKNTVYLQMNSLKPEDTAVYYCAVDGGEFSSYGYWGQGTQVTVSS | low polyreactivity

From the nanobody polyreactivity screen of Harvey et al. (2022)
